The source of these data is US20220387586A1 (Hoffmann-La Roche, published 2022).

The target in assay [1] is T1, LAG3 on cells (recombinant CHO cells expressing Lag3) (human, UniProt P18627 29-525).
T1 sequence: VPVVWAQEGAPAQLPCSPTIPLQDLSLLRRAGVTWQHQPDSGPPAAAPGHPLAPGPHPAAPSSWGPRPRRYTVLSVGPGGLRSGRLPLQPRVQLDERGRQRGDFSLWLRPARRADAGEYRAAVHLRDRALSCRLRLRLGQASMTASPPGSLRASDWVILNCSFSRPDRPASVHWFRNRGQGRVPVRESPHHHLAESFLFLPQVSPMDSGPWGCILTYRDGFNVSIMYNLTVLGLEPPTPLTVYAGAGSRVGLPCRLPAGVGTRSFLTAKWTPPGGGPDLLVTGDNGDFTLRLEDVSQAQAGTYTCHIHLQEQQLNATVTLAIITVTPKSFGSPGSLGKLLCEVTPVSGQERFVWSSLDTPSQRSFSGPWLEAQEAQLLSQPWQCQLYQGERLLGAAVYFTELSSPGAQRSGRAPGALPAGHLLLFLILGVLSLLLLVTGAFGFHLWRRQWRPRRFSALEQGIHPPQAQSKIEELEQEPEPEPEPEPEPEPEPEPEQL
The assay can be described thus: cell-based or functional assay.

Assay [2] concerns the target T1, LAG3 on cells (recombinant CHO cells …). The assay can be described thus: cell ELISA on recombinant CHO cells expressing Lag3. The procedure:
After washing (1×90 μl in PBST) cells were fixed by addition of 30 μl/well glutaraldehyde to a final concentration of 0.05% (Sigma Cat.No: G5882), 10 min at room temperature. After washing (3×90 μl/well with PBST-buffer) 25 μl/well goat anti-Human Ig κ chain antibody-HRP conjugate (Milipore, AP502P) was added in a 1:1000 dilution and incubated at RT for 1 h. After washing (3×90 μl/well with PBST-buffer) 25 μl/well TMB substrate (Roche, 11835033001) was added and incubated for 6-10 min. Measurement took place on a Tecan Safire 2 instrument at 370/492 nm.
(In general: In an ELISA, binding on a coated surface is turned into a signal by an enzyme label.)

The target of assay [3] is T2, cynomolgus LAG3 on cells (cynomolgus).
T2 construct: whole, on cells; also called cyno-LAG-3; cynoLAG3
The assay can be described thus: flow cytometry on HEK293F cells transfected with cyno-LAG-3, antibody 10 µg/ml. The procedure:
1.5×10⁵ cells/well were seeded into 96-well plates. […] HEK cells were incubated with indicated antibodies for 45 min on ice, washed twice with 200 μl ice-cold PBS buffer containing 2% FBS, before secondary antibody (APC-labelled goat anti-human IgG-kappa, Invitrogen, cat.no. #MH10515) was added (1:50 diluted in FACS-Puffer/well) and further incubated for 30 min on ice. Cells were again washed twice with 200 μl ice-cold PBS/2% FBS buffer before samples were finally resuspended in 150 μl FACS buffer and binding was measured on FACS CANTO-II HTS Module.
In general terms: Flow cytometry measures light scatter and fluorescence of single cells or particles in a stream.

In assay [4] the target is T2, cynomolgus LAG3 on cells. The assay can be described thus: flow cytometry on activated cynomolgus PBMC, 10 µg/ml (only 2nd Ab (rb): 5.26). The procedure: Thus, cynomolgus peripheral blood mononuclear cells (PBMC) were prepared from fresh cynomolgus blood and were then activated by CD3/CD28 pre-treatment (1 μg/ml) for 2-3 days. […] After staining, cells were washed two times with PBS/2% FCS and analyzed on a FACS Fortessa (BD).

A further assay has as its target T3, biotinylated-Lag3 (UniProt P18627 23-450, limits assumed, biotinylated).
T3 construct: Probably a human LAG3 ECD construct; also called Lag3 (MHCII/ELISA)
T3 sequence (looked up): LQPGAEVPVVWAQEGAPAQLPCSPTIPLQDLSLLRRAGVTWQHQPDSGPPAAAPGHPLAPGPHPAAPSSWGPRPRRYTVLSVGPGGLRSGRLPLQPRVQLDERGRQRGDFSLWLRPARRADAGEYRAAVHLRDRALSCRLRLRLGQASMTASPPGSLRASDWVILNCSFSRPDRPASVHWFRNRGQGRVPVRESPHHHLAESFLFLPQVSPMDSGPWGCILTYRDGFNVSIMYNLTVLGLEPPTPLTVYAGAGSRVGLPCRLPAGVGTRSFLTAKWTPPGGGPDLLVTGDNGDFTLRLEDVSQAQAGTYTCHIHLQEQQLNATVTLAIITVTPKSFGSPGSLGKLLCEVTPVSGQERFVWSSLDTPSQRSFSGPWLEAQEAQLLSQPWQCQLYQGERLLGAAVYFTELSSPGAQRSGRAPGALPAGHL
The assay can be described thus: ELISA, inhibition of biotinylated-Lag3 binding to MHC-II on A375 cells (competitor MHC-II). The procedure:
25 μl/well of A375 cells (10000 cells/well) were seeded into tissue culture treated 384-well plates (Corning, 3701) and incubated at 37° C. overnight. […] After washing (1×90 μl in PBST) cells were fixed by addition of 30 μl/well glutaraldehyde to a final concentration of 0.05% (Sigma Cat.No: G5882), 10 min at room temperature. After washing (3×90 μl/well with PBST-buffer) 25 μl/well Poly-HRP40-Streptavidin (Fitzgerald, 65R-S104PHRPx) was added in a 1:2000 or 1:8000 dilution and incubated at RT for 1 h. After washing (3×90 μl/well with PBST-buffer) 25 μl/well TMB substrate (Roche, #11835033001) was added and incubated for 2 to 10 min. Measurement took place on a Tecan Safire 2 instrument at 370/492 nm.

Assay [5] concerns the target T4, human Fc tagged human Lag3 extra cellular domain (human, UniProt P18627 29-450, biotinylated in the epitope binning, the SA CAP SPR and the FACS competition assay).
T4 construct: In-house fusion; also called huLag3-Fc; biotinylated, huFc-tagged huLag3; not shown: human Fc tag
T4 sequence: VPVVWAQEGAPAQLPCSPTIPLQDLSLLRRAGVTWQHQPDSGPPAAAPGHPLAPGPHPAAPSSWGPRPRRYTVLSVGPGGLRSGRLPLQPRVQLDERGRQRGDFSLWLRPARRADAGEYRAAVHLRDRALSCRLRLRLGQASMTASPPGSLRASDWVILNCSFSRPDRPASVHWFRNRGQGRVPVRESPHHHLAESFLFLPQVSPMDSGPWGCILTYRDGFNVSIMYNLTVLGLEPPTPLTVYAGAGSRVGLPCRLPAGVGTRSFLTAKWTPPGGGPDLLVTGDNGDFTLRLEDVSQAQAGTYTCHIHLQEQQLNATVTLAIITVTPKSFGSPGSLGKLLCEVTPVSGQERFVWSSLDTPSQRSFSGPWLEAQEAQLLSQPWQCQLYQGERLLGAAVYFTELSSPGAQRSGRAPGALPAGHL
The assay can be described thus: FACS, inhibition of biotinylated Lag3:Fc binding to MHC-II on A375 cells (competitor MHC-II); antibody 10 µg/ml. The procedure:
This analysis was studied in a FACS competition experiment: A375 cells (ATCC, #CRL-1619) were cultured for 2-3 passages in EM Eagle's medium supplemented with EBSS (PAN, cat.no. #P04-00509), 10% FBS, 2 mM L-Glutamin, 1×NEAA and 1× Sodium Pyruvate. All antibodies, were diluted in FACS buffer to a final concentration of 20 μg/ml in 25 μl (in 96well U-bottom plates). […] A375 cells were washed with PBS and adjusted to 3×10⁶ cells/ml in PBS. 100 μl were seeded per well in a 96well V-bottom plate. Plates were centrifuged and supernatant was removed. […] After this, cells were washed with 200 μl FACS buffer. […] After staining, cells were again washed and then transferred in 150 μl FACS buffer (PBS/2% FBS) to a U-bottom plate and analyzed on a FACS Canto-II using an HTS module.
All antibodies were used at 10 μg/ml final concentration.

B1: aLAG3(0414) (antibody, V domains shown)
VH: EVQLLESGGGLVQPGGSLRLSCAASGFIFDDYTMNWVRQAPGKGLEWVAVISWDGGGTYYTDSVKGRFTISRDDFKNTLYLQMNSLRAEDTAVYYCAKGLTDTTLYGSDYWGQGTLVTVSS
VL: DIQMTQSPSSLSASVGDRVTITCRASQSISSYLNWYQQKPGKAPKLLIYAASTLQSGVPSRFSGSGSGTDFTLTISSLQPEDFATYYCQQTYSSPLTFGGGTKVEIKG
Take B1: in assay [1], the “EC50 [nM] in Jurkat LAG3 + SED + Raji (NFAT luciferase), 1st assay” value (from here on “EC50 [nM] … 1st assay”) was found to be 1.1 nM; the “EC50 [nM] in Jurkat LAG3 + SED + Raji (NFAT luciferase), 2nd assay” value (from here on “EC50 [nM] … 2nd assay”) was determined as 1 nM; the “EC50 [nM] in Jurkat LAG3 + SED + Raji (NFAT luciferase), 3rd assay” value worked out at 1.8 nM. Besides, the “CHO-cell ELISA inflexion point” value in assay [2] stood at 48.1 ng/mL. In the assay with cynomolgus LAG3 on cells [3], the “% pos.” value was found to be 81.6% and the GeoMean is 9170. For the same molecule, the “% positive cyno cells (PBLs) after CD3/CD28 activation” value (“% positive cyno cells (PBLs)” below) with cynomolgus LAG3 on cells [4] is 43%. Also, the IC50 (in general, the concentration that inhibits the measured activity by half) in the assay with biotinylated-Lag3 amounted to 0.9 nM. Further, the % Inhibition (in general, the percentage by which the read-out fell short of the control) in assay [5] was 67.3%.

B2: aLAG3(0416) (antibody, V domains shown)
VH: EVQLVESGGGLVQPGGSLRLACAASGFTFSDYAMSWVRQAPGKGLEWVSGIDNSGYYTYYTDSVKGRFTISRDDVKNTLYLQMNSLRAEDTAVYLCTKTHSGLIVNDAFDIWGQGTMVTVSS
VL: DIQLTQSPSSLSASVGDRVTITCRASQSISSYLNWYQQKPGKAPKLLIYDASSLESGVPSRFSGSGSGTDATLTISSLQPEDFATYYCQQSYSTPLTFGGGTKVEIKG
For the molecule B2, in assay [1], the “EC50 [nM] … 1st assay” value was found to be 3.1 nM; the “EC50 [nM] … 2nd assay” value was determined as 2.5 nM; the “EC50 [nM] in Jurkat LAG3 + SED + Raji (NFAT luciferase), 3rd assay” value was found to be 3.5 nM. For the same molecule, the “CHO-cell ELISA inflexion point” value in assay [2] worked out at 37.2 ng/mL. In the assay with cynomolgus LAG3 on cells [3], the “% pos.” value came out at 67.9% and the GeoMean was 4220. Moreover, in the assay with cynomolgus LAG3 on cells [4], the “% positive cyno cells (PBLs)” value amounted to 38.9%. Moreover, in the assay with biotinylated-Lag3, the IC50 was determined as 0.9 nM. Moreover, in assay [5], the “% Inhibition” value was 68.6%.

B3: aLAG3(0411) (antibody, V domains shown)
VH: EVHLLESGGGLVQPGGSLRLSCAASGFIVDDYTMNWVRQAPGKGLEWVSVISWDGGATYYADSVKGRFTISRDDFKNTLYLQMNSLRAEDTAVYYCAKGLTDDTLYGSDYWGQGTLVTVSS
VL: DIQMTQSPSSLSASVGDRVTITCRASQSIVSYLNWYQQKPGKAPKLLIYASSSLQSGVPSRFSGSGSGTDFTLTISSLQPEDFATYYCQQTYSTPLTFGGGTKVEIK
notes: also called aLAG3 (411)
For B3, in assay [1], the “EC50 [nM] … 1st assay” value worked out at 1.1 nM and the “EC50 [nM] … 2nd assay” value is 1 nM. In assay [2], the “CHO-cell ELISA inflexion point” value is 41.3 ng/mL. Moreover, in the assay with cynomolgus LAG3 on cells [3], the “% pos.” value was 88.6% and the GeoMean is 11000. Also, in the assay with cynomolgus LAG3 on cells [4], the “% positive cyno cells (PBLs)” value was 46.6%. This molecule also displayed a half-inhibitory concentration (IC50) with biotinylated-Lag3 of 0.8 nM. The “% Inhibition” value in assay [5] amounted to 45.6%.

B4: aLAG3(0417) (antibody, V domains shown)
VH: EVQLVESGGGLVQPGGSLRLACAASGFTFSDYAMSWVRQAPGKGLEWVSGIDNSGYYTYYTDSVKGRFTISRDDVKNTLYLQMNSLRAEDTAVYLCTKTHSGLIVNDAFDIWGQGTMVTVSS
VL: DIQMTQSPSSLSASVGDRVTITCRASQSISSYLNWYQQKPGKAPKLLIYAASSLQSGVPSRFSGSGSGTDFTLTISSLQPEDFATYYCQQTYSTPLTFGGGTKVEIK
notes: also called aLAG3 (417)
B4: the “EC50 [nM] … 1st assay” value in assay [1] was 1 nM. Besides, the “CHO-cell ELISA inflexion point” value in assay [2] was determined as 27.8 ng/mL. Further, in the assay with cynomolgus LAG3 on cells [3], the “% pos.” value is 75.9% and the GeoMean worked out at 7120. The “% positive cyno cells (PBLs)” value in the assay with cynomolgus LAG3 on cells [4] was determined as 35.3%. Moreover, in the assay with biotinylated-Lag3, the IC50 is 0.9 nM. Further, the “% Inhibition” value in assay [5] amounted to 59.1%.

B5: aLAG3(0403) (antibody, V domains shown)
VH: EVQLLESGGGLVQPGGSLRLSCAASGFTFDDYTMHWVRQAPGKGLEWVSLVSWDGGGTYYTNSVKGRFTISRDNSKNTLYLQMNSLRAEDTAVYFCAKAITDTSLYGYDYWGQGILVTVSS
VL: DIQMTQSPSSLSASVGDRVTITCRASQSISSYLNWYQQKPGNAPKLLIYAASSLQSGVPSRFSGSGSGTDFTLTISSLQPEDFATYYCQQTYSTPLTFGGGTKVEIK
For the molecule B5, the “CHO-cell ELISA inflexion point” value in assay [2] is 30.9 ng/mL. In the assay with cynomolgus LAG3 on cells [3], the “% pos.” value was 82% and the GeoMean worked out at 7460. In addition, the “% positive cyno cells (PBLs)” value with cynomolgus LAG3 on cells [4] was determined as 44.2%. For the same molecule, the IC50 in the assay with biotinylated-Lag3 stood at 0.9 nM. Also, in assay [5], the “% Inhibition” value worked out at 34.9%.
